The domain aggregation screens of Martell et al. (2025)

Experiment: soluble fraction after stress (log2 fold change); higher = more stays soluble; pooled small domains, quantitative proteomics
Settings: stress: pH 4
How it was run: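 Aggregation propensity is estimated from the fold change in each domain's soluble amount after acid stress. Pooled small-domain libraries were stressed at pH 4, and higher log2 values mean more stayed soluble.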

Sequence | soluble fraction (log2)
HMIDEKVQAADKSIEIGNLSPLKGLVTDDEMHELEKLFEKVMALKDFEVNDVGAGRKYIEAYVSFFKFAEG | -0.847
HMTGIKISVDRLQIGNYVKLPLNWKDHPFLFSSFAIKSQEEIDLIRRLGLKQVIMFPDKSSMPPKPV | -0.0359
HMSNEVSYSDFVRSVESDEVNAVTLDGEQIRFVGNDGQTYSVIKPADAQITQLLIDNNVTVRAEQQ | -0.0566
HMAVGDMISKLRTAANMSQEQFAELFGVTRQSVQKWENSFSVPELEKLIKISKYFDVSLDALVLRSDARVT | -1.32
HMNALNDLESKIFEEVVKAPEIIMNMTIREFASTVHASPTTIVRMTHKLGFSGWNELKTYLQKQKHQIS | -0.0849
HMNTEFDVPDVVGKTLDEAEFVLKGSNLKRGLIMPVDDPSKAPGTIVRQNPEAGAGNKIRVGDVVDLWVVG | 0.187
HMLSNLYAVLGVGRRATPDEITAAFDAWNARADAGEPIDDPLWERVRYAWDVLSSPSRRDLYDSLVDDATG | -2.25
HMSGSLLQTRQRLQALTDLGHYKGDLAAAWGPEAIEALKRAQAALGITVDGKWGPETEDAIQVALQAQT | -0.133
HMQANLPFSELLADVDRGLISDVTIKGDQVSGHYTDGRTFNTFIPPEADLVRRLTEKNVRIAAVPD | -0.00341
HMGMTAPIPGVVLKVSVLPGQKVERGDELLTIEAMKMFNVMRSPSSGTIATVHIKDGDRVVQGQPLVTFA | 0.113
HMGIAKLLTEQEYKIALLAAERRTNAMIAEEMNLTENTVKTHLKHIFDKVGIAGNAKNKRHLLADMMNSER | 0.0405
HMARGRETILLVEDEPAVRGLVHATLRLHGYTVLEARHGIEALLTSTKFVGPIHLLLTDVVMPQMS | 0.265
HMETVMYLRQIKRPQGIYLAIQESYYDSSKKQSRTRTIESIGYLDNLRKEYEDPIAFFSQKAAAMTSEKKK | -0.177
HMGQLVYPAGVYDVNKSYITDSNSAPYVLDKTDNNYYVLNTQMTWKGTEQDNKTPSQSYEESGGSVWLLFD | -0.59
HMEREKTYLMPDLIGRKAERVVPRLQASGFKVEDIRHVYYPGLEKGVIVRQSPPGGYPIQKRNLINLEVS | 0.0984
HMSEITQTLSMIGKEVTLEIPDEKDKTKTTEVKGIVTEASFKDGTGKVKVNGEYYSIAYITSIRDT | -0.545
HMSVLPAREQVAAILRQAILLRKFKEGQDLTLKDAAELVGSSITPVREAFQILENEGLIELRPNKGAVVL | -0.616
HMSSPRAIYSAIQKAVGEDMILYREDVQIILDKLDADLLVDDILEKMELDGTLVRQRDGTWLLL | -1.01
HMNNDFIVKSTDSHKVNLRSQPDTHADIIKRLDDHTIVEKLKTVRKNWYLVQLKDTTTQGYVHKSQLERV | 0.21
HMASVAKHIRRLRTERHMTQGDLAEKLFVTRQTVSAWETGKAQPDLETLERIAVVLGVEVTELIYGAP | -0.537
HMLAVPADFAEKLQSLRSQLASDDLDASDAFGRLQPFIKALYPAQLEALRKAVDDFDFVEATRLIDQLPQ | -0.954
HMPTLSKVGSQGEEVRQIQTKLKNWGYLNDRVDGIYGPKTRDAVIWFQKKNGLVADGIAGPATLKAMGIFT | ≥ 0.43
HMNNDFVERLRKLFGHASMAEIARRIDVPHATIRNYFQGRLPAPEVLIKLARETGVSLNWLLTGEGKMFA | -0.113
HMTGSETLQDIFAHLEAGTVRTALSLIPRLDAVEYEQNRQRIAELAGVRPSALDDLRKQAKREEN | -0.434
HMNAEGLIGREAVALTAVDAHGGRVRLGGEEWSARLSKENGGVSRLSVGDPVRVTDIDGAIAVVAP | 0.0456
HMTETELYDEVNRLIGLHLSERDRMILIMRDRDEFEIDAIAARTGLSEGNIRLILSRARRTVREAYRNNI | -1.6
HMNEIDLEAAKRIALQNAGVESADAAFTKAQLDYDDGVAEYEIEFVAGSTKYEYEISAANGTVLKSSKESV | 0.243
HMFVGVDMAVKEEIGKEGVAFTDLRPAGKVSIGDDVYDAVSETGAFITRGTSVRVLKYQAGQVYVVK | 0.354
HMDQVLHQLVEVLRRSEIRISPAETLDAFKVLRNVGIDNKSLLREALALTLAKSIHEKIIFYETFDEFFT | -1.08
HMPVNGEFIERIKVMVLENKAKGKKERLTKTRMHQLLQEEGYKGSYSAFTHQVRIIEEELGVNQKEAH | 0.235
